Measurements from patent EP4279092A1 (Bayer AG, dated 2023).

B1: Ac-225-macropa-Pelgifatamab (CAR 0.8) (antibody, V domains shown)
VH: QVQLVESGGGVVQPGRSLRLSCAASGFAFSRYGMHWVRQAPGKGLEWVAVIWYDGSNKYYADSVKGRFTISRDNSKNTQYLQMNSLRAEDTAVYYCARGGDFLYYYYYGMDVWGQGTTVTVSS
VL: DIQMTQSPSSLSASVGDRVTITCRASQGISNYLAWYQQKTGKVPKFLIYEASTLQSGVPSRFSGGGSGTDFTLTISSLQPEDVATYYCQNYNSAPFTFGPGTKVDIKR
modifications: macropa chelator complexing 225Ac, coupled via thiourea to the terminal amino group of a Lysine residue; chelator-to-antibody ratio 0.8; chain and position not stated
B2: Ac-225-DOTA-Pelgifatamab CAR 5.7 (antibody, V domains shown)
VH: B1 VH
VL: B1 VL
modifications: p-SCN-Bn-DOTA chelator complexing 225Ac, coupled to the terminal amino group of Lysine residues; chelator-to-antibody ratio 5.7; chain and positions not stated
B3: Ac-225-DOTA-Pelgifatamab CAR 12.7 (antibody, V domains shown)
VH: B1 VH
VL: B1 VL
modifications: p-SCN-Bn-DOTA chelator complexing 225Ac, coupled to the terminal amino group of Lysine residues; chelator-to-antibody ratio 12.7; chain and positions not stated

The binders below were run against prostate-specific membrane antigen (PSMA) on prostate cancer cell lines (human, UniProt Q04609 1-750) (assay: cell-based or functional assay).
Chain of prostate-specific membrane antigen (PSMA) on prostate cancer cell lines (Q04609 whole entry): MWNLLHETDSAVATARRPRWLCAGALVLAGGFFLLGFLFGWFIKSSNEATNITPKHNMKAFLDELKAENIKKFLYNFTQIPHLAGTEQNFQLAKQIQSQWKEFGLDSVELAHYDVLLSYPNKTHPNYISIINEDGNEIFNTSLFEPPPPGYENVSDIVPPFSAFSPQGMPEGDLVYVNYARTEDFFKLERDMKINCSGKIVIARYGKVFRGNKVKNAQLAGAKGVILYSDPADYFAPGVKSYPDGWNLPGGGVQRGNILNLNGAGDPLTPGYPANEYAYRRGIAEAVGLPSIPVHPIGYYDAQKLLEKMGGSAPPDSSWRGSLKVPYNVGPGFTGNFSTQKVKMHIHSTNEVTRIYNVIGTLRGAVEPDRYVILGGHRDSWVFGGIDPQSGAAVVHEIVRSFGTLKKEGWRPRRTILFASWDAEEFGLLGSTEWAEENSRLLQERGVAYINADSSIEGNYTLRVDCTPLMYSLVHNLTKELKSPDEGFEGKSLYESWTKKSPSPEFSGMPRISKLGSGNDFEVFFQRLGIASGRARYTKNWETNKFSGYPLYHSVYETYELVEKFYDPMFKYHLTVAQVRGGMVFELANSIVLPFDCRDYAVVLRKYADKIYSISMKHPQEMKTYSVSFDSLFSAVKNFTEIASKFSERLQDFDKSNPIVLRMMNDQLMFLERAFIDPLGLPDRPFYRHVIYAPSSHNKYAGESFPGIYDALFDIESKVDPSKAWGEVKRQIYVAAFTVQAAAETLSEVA
With B1 the “IC50, in-vitro cytotoxicity (CellTiterGlo), C4-2 cells” value (“IC50 … C4-2 cells” for short) was 0.09 kBq/ml and the “IC50, in-vitro cytotoxicity (CellTiterGlo), MDA-PCa-2b cells” value (“IC50 … MDA-PCa-2b cells” below) was 0.05 kBq/ml. For B2, the “IC50 … C4-2 cells” value was 0.15 kBq/ml and the “IC50 … MDA-PCa-2b cells” value was 0.09 kBq/ml. In the case of B3, the “IC50 … C4-2 cells” value is reported as 0.29 kBq/ml and the “IC50 … MDA-PCa-2b cells” value is reported as 0.2 kBq/ml.
